{"source": "patent US20210147922", "experiment_in_all_cases": "cell_activity", "key": {"[1]": {"system": "AAVS1_R TALEN right monomer", "details": "paired with AAVS1_L, 2 ug per monomer, K562 cells"}, "[2]": {"system": "GA6_R TALEN right monomer", "details": "paired with GA6_L, 2 ug mRNA per monomer, K562 cells"}, "[3]": {"system": "GA6_EK TALEN right monomer", "details": "GA6_EK pair; GA6 54% in same table"}, "[4]": {"system": "GA7_R TALEN right monomer", "details": "paired with GA7_L, 2 ug per monomer, CD34+ cells"}, "[5]": {"system": "GA7_EK TALEN right monomer", "details": "GA7_EK pair, CD34+ cells; GA7 50%"}, "[6]": {"system": "AAVS1_L TALEN left monomer", "details": "paired with AAVS1_R, 2 ug per monomer, K562 cells"}, "[7]": {"system": "GA7_EK TALEN left monomer", "details": "GA7_EK pair, CD34+ cells; GA7 50%"}, "[8]": {"system": "GA7_L TALEN left monomer", "details": "paired with GA7_R, 2 ug per monomer, CD34+ cells"}, "[9]": {"system": "GA6_L19 TALEN left monomer", "details": "paired with GA6_R, K562 cells"}, "[10]": {"system": "GA6_EK TALEN left monomer", "details": "GA6_EK pair; GA6 54% in same table"}, "[11]": {"system": "GA6_L (GA6_L14) TALEN left monomer", "details": "paired with GA6_R, K562 cells"}, "[12]": {"system": "GA6_L17 TALEN left monomer", "details": "paired with GA6_R, K562 cells"}}}
{"sequence": "AGGATTGGTGACAGAAA (double strand) [AAVS1 right half-site (printed top strand)]", "values": [{"measurement": "activity", "setting": "[1]", "value": 93, "unit": "% editing"}]}
{"sequence": "AGTGCATGGCTGCAATGTGTGA (double strand) [GA6 right half-site (printed top strand)]", "values": [{"measurement": "activity", "setting": "[2]", "value": 91, "unit": "% editing"}, {"measurement": "activity", "setting": "[3]", "value": 36, "unit": "% editing"}]}
{"sequence": "ATGGTAGAGAATGAGAGGGGGA (double strand) [GA7 right half-site (printed top strand)]", "values": [{"measurement": "activity", "setting": "[4]", "value": 70, "unit": "% editing"}, {"measurement": "activity", "setting": "[5]", "value": 20, "unit": "% editing"}]}
{"sequence": "TCCCCTCCACCCCACAGT (double strand) [AAVS1 left half-site]", "values": [{"measurement": "activity", "setting": "[6]", "value": 93, "unit": "% editing"}]}
{"sequence": "TGCTCAGCCCAGCTCAGCCT (double strand) [GA7 left half-site]", "values": [{"measurement": "activity", "setting": "[7]", "value": 20, "unit": "% editing"}, {"measurement": "activity", "setting": "[8]", "value": 70, "unit": "% editing"}]}
{"sequence": "TGGAGTGTGTAACAATGCCT (double strand) [GA6_L19 left half-site]", "values": [{"measurement": "activity", "setting": "[9]", "value": 86, "unit": "% editing"}]}
{"sequence": "TGTGTAACAATGCCT (double strand) [GA6 left half-site]", "values": [{"measurement": "activity", "setting": "[10]", "value": 36, "unit": "% editing"}, {"measurement": "activity", "setting": "[11]", "value": 96, "unit": "% editing"}]}
{"sequence": "TGTGTAACAATGCCTGTG (double strand) [GA6_L17 left half-site]", "values": [{"measurement": "activity", "setting": "[12]", "value": 98, "unit": "% editing"}]}
